Earlier results on 1 substance are cited in publication PMC3749136.

This data set addresses EGF-R pY1092 peptide pY1092 peptide (Homo sapiens) (UniProt P00533). As to conditions: cited from earlier work.

SOCS4 SH2, sequence (Q8WXH5 283-384): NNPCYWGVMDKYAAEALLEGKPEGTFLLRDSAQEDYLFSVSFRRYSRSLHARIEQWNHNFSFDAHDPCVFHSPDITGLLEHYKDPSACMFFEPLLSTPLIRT

SOCS4 SH2 (from UniProt Q8WXH5): the Kd was 0.5 µM.
